From patent US20190177422A1 (SORRENTO THERAPEUTICS, published 2019)

T1: OX40 on OX40+ HEK293-NFkB-luciferase reporter stable cells (UniProt P43489 29-277)
T1 sequence (looked up): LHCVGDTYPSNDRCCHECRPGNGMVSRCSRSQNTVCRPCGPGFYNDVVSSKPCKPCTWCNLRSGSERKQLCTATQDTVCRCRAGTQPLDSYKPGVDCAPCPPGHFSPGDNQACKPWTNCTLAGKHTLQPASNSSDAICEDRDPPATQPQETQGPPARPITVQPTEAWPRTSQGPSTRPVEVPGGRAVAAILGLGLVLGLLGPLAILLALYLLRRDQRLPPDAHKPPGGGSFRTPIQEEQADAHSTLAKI

B1: OX4D7 (antibody, V domains shown)
VH: QVQLVQSGAEVKKPGASVKVSCKASGYTFTSYYMHWVRQAPGQGLEWMGIINPSGGSTSYAQKFQGRVTMTTDTSTSTAYMELRSLRSDDTAVYYCARDPYSSSWYGAEYFQHWGQGTLVTVSS
VL: QSVLTQPRSVSGSPGQSVTISCTGTSSDGGDYNYVSWYQQHPGQAPKLLIYEVSNRPSGVSNRFSGSKSGNTASLTISGLQAEDEADYYCSSYTSSSTLVVFGGGTKLTVL
B2: OX1B2 (antibody, V domains shown)
VH: QVQLVQSGAEVKKPGASVKVSCKASGYTFTSYYMHWVRQAPGQGLEWMGIINPSGGSTSYAQKFQGRVTMTRDTSTSTVYMELSSLRSEDTAVYYCARDYYDSSGYSDYGMDVWGQGTTVTVSS
VL: DIVMTQSPSSLSASVGDRVTITCRASQSISSYLNWYQQKPGKAPKLLIYAASSLQSGVPSRFSGSGSGTDFTLTISSLQPEDFAIYYCQQNYNTRQVTFGQGTRLEIK
B3: OX1D9 (antibody, V domains shown)
VH: QVQLVQSGAEVKKPGASVKVSCKASGYTFTSYGISWVRQALGQRLEWLGWINAGDGETKYSPKFQGRVTITRDTSASTAYMDLSGLTSEDTAVYYCARDFLSTMDYWGQGTLVTVSS
VL: DVVMTQSPSSLSASVGDRVTITCQASQDISNYLNWYQQKPGKAPKLLIYDASNLETGVPSRFSGGGSGTDFTFTISSLQPEDIATYYCQQFDNLPYTFGQGTKVEIK
B4: OX1C4 (antibody, V domains shown)
VH: EVQLVESGAEVKKPGASVKVSCKTSGYTFTGYYLHWVRQAPGQGLEWMGIINPGDGSTRNAQKFEGRVTMTRDTSTSTVYMELSSLSPEDTAVYYCARDLEYIGSGSLSWFDPWGQGTLVTVSS
VL: LPVLTQPASVSGSPGQSITISCSGTSSDFLTYDLVSWYKQQPGKAPKLMIYDVNKRPSGVSDRFSGSKSGNTASLTISGLQAADEADYYCSSYTSSSTPYVFGTGTKVTVL

molecular target: T1, OX40 on OX40+ HEK293-NFkB-luciferase …; assay: cell-based or functional assay

luciferase activity (RLUs) of OX40+ HEK293-NFkB-luciferase reporter cells, ~6 h stimulation, antibody at 20 µg/ml | Binder
> 50 % of signal observed with purified rhOX40L+anti-His | B1
> 50 % of signal observed with purified rhOX40L+anti-His | B2
> 50 % of signal observed with purified rhOX40L+anti-His | B3
> 50 % of signal observed with purified rhOX40L+anti-His | B4
